The labels stand for the following.
T1: carcinoembryonic antigen (CEA) (human, UniProt P06731 35-685)
T1 sequence (looked up): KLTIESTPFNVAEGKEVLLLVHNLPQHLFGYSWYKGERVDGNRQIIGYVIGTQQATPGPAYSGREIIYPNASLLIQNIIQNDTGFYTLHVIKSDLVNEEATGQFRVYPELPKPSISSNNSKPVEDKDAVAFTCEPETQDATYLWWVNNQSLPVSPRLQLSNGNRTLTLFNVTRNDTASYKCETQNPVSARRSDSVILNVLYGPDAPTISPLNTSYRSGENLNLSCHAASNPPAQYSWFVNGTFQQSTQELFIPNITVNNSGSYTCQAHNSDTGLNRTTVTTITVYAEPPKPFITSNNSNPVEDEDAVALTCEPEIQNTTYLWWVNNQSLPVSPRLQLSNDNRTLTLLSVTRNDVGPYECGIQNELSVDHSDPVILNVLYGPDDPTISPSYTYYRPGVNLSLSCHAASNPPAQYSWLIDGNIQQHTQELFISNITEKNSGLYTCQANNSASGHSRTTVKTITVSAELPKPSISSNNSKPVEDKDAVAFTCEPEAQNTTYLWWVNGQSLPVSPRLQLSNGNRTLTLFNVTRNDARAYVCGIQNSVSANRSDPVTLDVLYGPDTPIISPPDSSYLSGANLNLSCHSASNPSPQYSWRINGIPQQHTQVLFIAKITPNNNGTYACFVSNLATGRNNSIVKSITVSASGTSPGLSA

B1: HuCOL-1AbrCDR (antibody, V domains shown)
VH: EVQLVQSGAEVVKPGASVKMSCKASGFNIKDYYMHWVKQRPEQGLEWIGWIDPENGDTEYAQKFQGKATMTTDTSTSTAYLELSSLRSEDTAVYYCNTRGLSTMITTRWFFDVWGAGTLVTVSS
VL: DIVLTQSPASLAVSLGERATINCKSSQSVSASGYSYMHWYQQKPGQPPKLLIYLASNLQSGVPARFSGSGSGTDFTLTISSVQAEDVATYYCQHSRELPTFGGGTKLEIK
notes: also called FRV1; HuCOL-1 24,25,27L/61H
B2: HuCOL-1AbrCDR framework variant 7 (FRV7) (antibody, V domains shown)
VH: B1 VH with M20V, F27Y, K38R, I48M, K67R, A68V, A79V, L81M
VL: B1 VL
notes: also called HuCOL-1FRV7; FR7
B3: HuCOL-1AbrCDR framework variant 4 (FRV4) (antibody, V domains shown)
VH: B1 VH with M20V, K38R, I48M, K67R, A79V, L81M
VL: B1 VL
notes: also called HuCOL-1FRV4
B4: HuCOL-1AbrCDR framework variant 10 (FRV10) (antibody, V domains shown)
VH: B1 VH with E1Q, V12K, M20V, F27Y, K38R, I48M, K67R, A68V, A79V, L81M
VL: B1 VL
notes: also called HuCOL-1FRV10
B5: HuCOL-1 (antibody, V domains shown)
VH: B1 VH with R40A, E42G, Q62P
VL: B1 VL with K24R, S25A, Q27K
notes: Whole humanized antibody; also called humanized COL-1; ATCC PTA-4661
B6: FRV9 (antibody, name in Kabat numbering, V domains shown)
VH: B1 VH with M20V, F27Y, K38R, I48M, K67R, A68V, A79V, L81M
VL: B1 VL with L4M, A64D, V82L, T89V, L107V
notes: Kabat positions (see notes of FRV2 and FRV8); also called HuCOL-1AbrCDR framework variant 9
B7: FRV12 (antibody, name in Kabat numbering, V domains shown)
VH: B1 VH with E1Q, V12K, M20V, F27Y, K38R, I48M, K67R, A68V, A79V, L81M
VL: B1 VL with L4M, A64D, V82L, T89V, L107V
notes: Kabat positions (see notes of FRV2 and FRV8); also called HuCOL-1AbrCDR framework variant 12
B8: FRV11 (antibody, name in Kabat numbering, V domains shown)
VH: B1 VH with E1Q, V12K, M20V, F27Y, K38R, I48M, K67R, A68V, A79V, L81M
VL: B1 VL with L4M, V82L, L107V
notes: Kabat positions (see notes of FRV2 and FRV8); also called HuCOL-1AbrCDR framework variant 11
B9: FRV5 (antibody, name in Kabat numbering, V domains shown)
VH: B1 VH with M20V, K38R, I48M, K67R, A79V, L81M
VL: B1 VL with L4M, V82L, L107V
notes: Kabat positions; also called HuCOL-1AbrCDR framework variant 5
B10: FRV2 (antibody, name in Kabat numbering, V domains shown)
VH: B1 VH
VL: B1 VL with L4M, V82L, L107V
notes: also called HuCOL-1AbrCDR framework variant 2
B11: FRV8 (antibody, name in Kabat numbering, V domains shown)
VH: B1 VH with M20V, F27Y, K38R, I48M, K67R, A68V, A79V, L81M
VL: B1 VL with L4M, V82L, L107V
notes: Kabat positions; also called HuCOL-1AbrCDR framework variant 8
B12: FRV3 (antibody, name in Kabat numbering, V domains shown)
VH: B1 VH
VL: B1 VL with L4M, A64D, V82L, T89V, L107V
notes: Kabat positions (see note of FRV2); also called HuCOL-1AbrCDR framework variant 3
B13: FRV6 (antibody, name in Kabat numbering, V domains shown)
VH: B1 VH with M20V, K38R, I48M, K67R, A79V, L81M
VL: B1 VL with L4M, A64D, V82L, T89V, L107V
notes: Kabat positions (see notes of FRV2 and FRV5); also called HuCOL-1AbrCDR framework variant 6
B14: murine COL-1 monoclonal antibody (antibody, V domains shown)
VH: EVQLQQSGAELVRSGASVKMSCTASGFNIKDYYMHWVKQRPEQGLEWIGWIDPENGDTEYAPKFQGKATMTTDTSSNTAYLQLSSLTSEDTAVYYCNTRGLSTMITTRWFFDVWGAGTTVAVSS
VL: DIVLTQSPASLTVSLGLRATISCRASKSVSASGYSYMHWYQQRPGQPPKLLIYLASNLQSGVPARFSGSGSGTDFTLNIHPVEEEDAATYYCQHSRELPTFGGGTKLEIK
notes: Whole murine antibody; also called mCOL-1; muCOL-1
B15: chimeric COL-1 (antibody, V domains shown)
VH: B14 VH
VL: B14 VL

We go through 15 molecules from patent US20080274055A1 (US Dept. of Health and Human Services, published 2008).

Substitutions are numbered along the chain they refer to.

For the first test, the target named is anti-V region antibodies to COL-1 present in the serum of patient two. Put plainly: SPR competition, serum of patient two; reference HuCOL-1.
For the molecule B1, the fold higher IC50 than HuCOL-1 amounted to 1.5 fold.

For a further test, the target named is anti-V region antibodies to COL-1 present in the serum of patient one. Put plainly: SPR competition, serum of patient one; reference HuCOL-1.
B1 had a fold higher IC50 than HuCOL-1 of 1.5 fold.

Another test concerns the target T1, carcinoembryonic antigen (CEA). Description: competition RIA against 125I-mCOL-1 on CEA; modified Scatchard. How it is done: (§1) Competition RIA: The relative antigen-binding affinity of HuCOL-1, HuCOL-1AbrCDR and HuCOL-1AbrCDR antibodies with framework-substitutions was determined using a competition RIA as described previously (De Pascalis et al., J Immunol., 169:3076-3084, 2002). Twenty-five μl of serial dilutions of the antibodies to be tested, as well as mCOL-1, chimeric COL-1, and HuCOL-1 (positive controls) and HuIgG (negative control), prepared in 1% BSA in PBS, were added to microtiter plates containing 10 ng of […] saturated with 5% BSA in PBS. ¹²⁵I-labeled mCOL-1 (100,000 cpm in 25 μl) was then added to each well. After an overnight incubation at 4° C., the plates were washed and the bound radioactivity was counted in a γ-scintillation counter.
(§2) Competition RIA experiments were performed to determine the relative CEA-binding affinity of chimeric COL-1, HuCOL-1, HuCOL-1AbrCDR, and the different HuCOL-1AbrCDR-derived antibodies. Serial dilutions of unlabeled antibodies were used to compete with the binding of ¹²⁵I-mCOL-1 (FIGS. 4A, 4B and 4C) to CEA.
For B1, the Ka turned out to be 2.32e+08 M⁻¹.

Consider B2, for which the Ka was determined as 3.07e+08 M⁻¹.

For the molecule B3, the Ka was 2.51e+08 M⁻¹.

B4: the Ka is 3.04e+08 M⁻¹.

Regarding B5, the Ka came to 2.78e+08 M⁻¹.

For the next test the target is unchanged. Description: competition RIA against 125I-mCOL-1; reference of the fold not named. As for the experimental part:
as §1, §2
Consider B1, for which the “Fold Difference” value was 1.2 fold.

For the molecule B6, the “Fold Difference” value came to 4.5 fold.

Regarding B7, the “Fold Difference” value was found to be 5.6 fold.

Take B8: the “Fold Difference” value worked out at 4.5 fold.

For B2, the “Fold Difference” value was 0.9 fold.

With B3, the “Fold Difference” value was 1.1 fold.

Turning to B9, the “Fold Difference” value was 2.7 fold.

Turning to B10, the “Fold Difference” value turned out to be 9.5 fold.

For the molecule B11, the “Fold Difference” value is 3.6 fold.

B12: the “Fold Difference” value turned out to be 8.6 fold.

As for B13, the “Fold Difference” value worked out at 2.8 fold.

In the case of B4, the “Fold Difference” value amounted to 0.9 fold.

In the case of B5, the “Fold Difference” value was found to be 1 fold.

For B14, the “Fold Difference” value worked out at 1 fold.

For the molecule B15, the “Fold Difference” value was 1.4 fold.

In the next test the target is anti-V region antibodies to COL-1 present in the serum of patient two. Description: SPR competition; reference HuCOL-1; lower end tied to serum EM by Table IV (9.7 against 1.9).
B4 had a fold higher IC50 than HuCOL-1 of 5 to 6 fold.

In a further test the target is T1, carcinoembryonic antigen (CEA). Put plainly: competition RIA, unlabeled antibody against 125I-mCOL-1 on CEA; modified Scatchard. As for the experimental part:
as §1, §2
Consider B1, for which the Ka was found to be 2.3e+08 M⁻¹.

For B6, the Ka was 6.1e+07 M⁻¹.

Molecule B7 displayed a Ka of 4.9e+07 M⁻¹.

On to B8, for which the Ka came to 6.1e+07 M⁻¹.

Take B2: the Ka was 3.07e+08 M⁻¹.

For B3, the Ka amounted to 2.51e+08 M⁻¹.

In turn, B9 yielded a Ka of 1.01e+08 M⁻¹.

Molecule B10 came in with a Ka of 2.9e+07 M⁻¹.

B11 showed a Ka of 7.7e+07 M⁻¹.

In turn, B12 had a Ka of 3.2e+07 M⁻¹.

B13 had a Ka of 1e+08 M⁻¹.

B4: the Ka was 3.04e+08 M⁻¹.

Molecule B5 showed a Ka of 2.78e+08 M⁻¹.

B14 came in with a Ka of 2.74e+08 M⁻¹.

In the case of B15, the Ka was determined as 1.99e+08 M⁻¹.

In the next test the target is anti-V region antibodies to COL-1 present in the serum of patient one. Put plainly: SPR competition; reference HuCOL-1; upper end tied to serum MB by Table IV (28.5 against 4.9).
In the case of B4, the fold higher IC50 than HuCOL-1 lay in the range of 5 to 6 fold.

The next test has as its target anti-V region antibodies to COL-1 present in the serum of patient two. Description: SPR competition; soluble antibody against immobilized HuCOL-1 for serum anti-V region antibodies.
As for B1, the half-inhibitory concentration (IC50) is 2.9 nM.

As to B4, the IC50 amounted to 9.7 nM.

Molecule B5 came in with an IC50 of 1.9 nM.

The target of a further test is anti-V region antibodies to COL-1 present in the serum of patient one. The description is as above.
Molecule B1 yielded an IC50 of 6.9 nM.

As to B4, the IC50 is 28.5 nM.

With B5, the IC50 worked out at 4.9 nM.

The target of another test is T1, carcinoembryonic antigen (CEA). Put plainly: competition RIA: unlabeled antibody against 125I-mCOL-1 for binding to CEA, % inhibition against amount competitor Ab (ng), log axis.
Description: FIGS. 4A, 4B, and 4C are a series of graphs of a competition radioimmunoassay of HuCOL-1AbrCDR framework variants using ¹²⁵I-mCOL-1. Serial dilutions of unlabeled antibodies were used to compete with the binding of ¹²⁵ImCOL-1. The data was divided into three individual graphs to facilitate viewing. FIG. 4A compares the binding of unlabeled murine COL-1 (muCOL-1), chimeric COL-1 (cCOL-1), HuCOL-1, FRV1 (HuCOL-1AbrCDR), and human IgG (HuIgG). FIG. 4B compares the binding of unlabeled murine HuCOL-1AbrCDR, FRV2, FRV3, FRV4, FRV7, and FRV10. FIG. 4C compares the binding of unlabeled murine HuCOL-1AbrCDR, FRV5, FRV6, FRV8, FRV9, FRV11, and FRV12.
as §1, §2
B9: the “IC50 (read off the curve)” value was around 30 ng.

As to B14, the “IC50 (read off the curve)” value is around 20 ng.

On to B15, for which the “IC50 (read off the curve)” value is around 30 ng.

Usually IC50 stands for the concentration that gives 50% inhibition.
